Reference: US20230295310A1 (ABCELLERA BIOLOGICS, published 2023)

Biological target: human EGFR, C-terminal eGFP-tagged, on CHO-K1 cells (human, UniProt P00533 25-1210)
Assay: cell-based or functional assay

B1: GOMP001_bsAb_040 (bispecific antibody, human IgG1, kappa, L234A L235A)
heavy 1: EVQLVESGGGLVKTGGSHRLSCVASGFSFKKAWMNWVRYAPGKGLEWVGRIKRNSDGGTTDYAARVKGRFILSRDDSKNTLYLQMNSLKTEDTAVYYCTTLDSSSWYVGYYYMDVWGRGTTVTVSSASTKGPSVFPLAPSSKSTSGGTAALGCLVKDYFPEPVTVSWNSGALTSGVHTFPAVLQSSGLYSLSSVVTVPSSSLGTQTYICNVNHKPSNTKVDKKVEPKSCDKTHTCPPCPAPEAAGGPSVFLFPPKPKDTLMISRTPEVTCVVVDVSHEDPEVKFNWYVDGVEVHNAKTKPREEQYNSTYRVVSVLTVLHQDWLNGKEYKCKVSNKALPAPIEKTISKAKGQPRRPRVYTLPPSREEMTKNQVSLVCLVKGFYPSDIAVEWESNGQPENNYKTTPPVLDSDGSFFLYSVLTVDKSRWQQGNVFSCSVMHEALHNHYTQKSLSLSPG
light 1: DIQMTQSPSSVSASVGDRVTITCRASQDINNWLAWYQRKPGDAPKILIYTASNLQSGVPSRFSGSGSGTDFTLTISSLQPEDFATYFCQQAHSLPITFGQGTRLEIKRTVAAPSVFIFPPSDEQLKSGTASVVCLLNNFYPREAKVQWKVDNALQSGNSQESVTEQDSKDSTYSLSSTLTLSKADYEKHKVYACEVTHQGLSSPVTKSFNRGEC
heavy 2: QVQLVQSGAEVKKPGASVKVSCKASGYTFTSHWMHWVRYAPGQGLEWIGEFNPSNGRTNYNEKFKSKATMTVDTSTNTAYMELSSLRSEDTAVYYCASRDYDYDGRYFDYWGRGTLVTVSSASTKGPSVFPLAPSSKSTSGGTAALGCLVKDYFPEPVTVSWNSGALTSGVHTFPAVLQSSGLYSLSSVVTVPSSSLGTQTYICNVNHKPSNTKVDKKVEPKSCDKTHTCPPCPAPEAAGGPSVFLFPPKPKDTLMISRTPEVTCVVVDVSHEDPEVKFNWYVDGVEVHNAKTKPREEQYNSTYRVVSVLTVLHQDWLNGKEYKCKVSNKALPAPIEKTISKAKGQPRRPRVYTLPPSREEMTKNQVSLVCLVKGFYPSDIAVEWESNGQPENNYKTTPPVLDSDGSFFLYSVLTVDKSRWQQGNVFSCSVMHEALHNHYTQKSLSLSPG
light 2: DIQMTQSPSSLSASVGDRVTITCSASSSVTYMYWYQRKPGDAPKLLIYDTSNLASGVPSRFSGSGSGTDYTFTISSLQPEDIATYYCQQWSSHIFTFGQGTKVEIKRTVAAPSVFIFPPSDEQLKSGTASVVCLLNNFYPREAKVQWKVDNALQSGNSQESVTEQDSKDSTYSLSSTLTLSKADYEKHKVYACEVTHQGLSSPVTKSFNRGEC
  EC50 CHO-K1 EGFR Low (nM); T cell activation bioassay, luciferase: 0.0499 nM
  EC50 CHO-K1 EGFR Med (nM); T cell activation bioassay, luciferase: 0.0038 nM

B2: GOMP001_bsAb_042 (bispecific antibody, human IgG1, kappa, L234A L235A)
heavy 1: EVQLVESGGGLVKTGGSLRLSCVASGFSFKKAWMNWVRYAPGKGLEWVGRIKRNTDGGPADYAARVKGRFTLSRDDSKKTLYLQMNSLKTEDTAVYYCTTLDSSSWYVGYYYMDVWGRGTTVTVSSASTKGPSVFPLAPSSKSTSGGTAALGCLVKDYFPEPVTVSWNSGALTSGVHTFPAVLQSSGLYSLSSVVTVPSSSLGTQTYICNVNHKPSNTKVDKKVEPKSCDKTHTCPPCPAPEAAGGPSVFLFPPKPKDTLMISRTPEVTCVVVDVSHEDPEVKFNWYVDGVEVHNAKTKPREEQYNSTYRVVSVLTVLHQDWLNGKEYKCKVSNKALPAPIEKTISKAKGQPRRPRVYTLPPSREEMTKNQVSLVCLVKGFYPSDIAVEWESNGQPENNYKTTPPVLDSDGSFFLYSVLTVDKSRWQQGNVFSCSVMHEALHNHYTQKSLSLSPG
light 1: DIQMTQSPSSVSASVGDRVIITCRASQDINNWLAWYLRRPGDAPKLLIYAASSLQSGVPSRFSGSGSGTDFTLTIGSLQPEDFATYYCQQAHSLPITFGQGTRLEIQRTVAAPSVFIFPPSDEQLKSGTASVVCLLNNFYPREAKVQWKVDNALQSGNSQESVTEQDSKDSTYSLSSTLTLSKADYEKHKVYACEVTHQGLSSPVTKSFNRGEC
heavy 2: QVQLVQSGAEVKKPGASVKVSCKASGYTFTSHWMHWVRYAPGQGLEWIGEFNPSNGRTNYNEKFKSKATMTVDTSTNTAYMELSSLRSEDTAVYYCASRDYDYDGRYFDYWGRGTLVTVSSASTKGPSVFPLAPSSKSTSGGTAALGCLVKDYFPEPVTVSWNSGALTSGVHTFPAVLQSSGLYSLSSVVTVPSSSLGTQTYICNVNHKPSNTKVDKKVEPKSCDKTHTCPPCPAPEAAGGPSVFLFPPKPKDTLMISRTPEVTCVVVDVSHEDPEVKFNWYVDGVEVHNAKTKPREEQYNSTYRVVSVLTVLHQDWLNGKEYKCKVSNKALPAPIEKTISKAKGQPRRPRVYTLPPSREEMTKNQVSLVCLVKGFYPSDIAVEWESNGQPENNYKTTPPVLDSDGSFFLYSVLTVDKSRWQQGNVFSCSVMHEALHNHYTQKSLSLSPG
light 2: DIQMTQSPSSLSASVGDRVTITCSASSSVTYMYWYQRKPGDAPKLLIYDTSNLASGVPSRFSGSGSGTDYTFTISSLQPEDIATYYCQQWSSHIFTFGQGTKVEIKRTVAAPSVFIFPPSDEQLKSGTASVVCLLNNFYPREAKVQWKVDNALQSGNSQESVTEQDSKDSTYSLSSTLTLSKADYEKHKVYACEVTHQGLSSPVTKSFNRGEC
  EC50 CHO-K1 EGFR Low (nM); T cell activation bioassay, luciferase: 0.0439 nM
  EC50 CHO-K1 EGFR Med (nM); T cell activation bioassay, luciferase: 0.00223 nM

B3: GOMP001_bsAb_041 (bispecific antibody, human IgG1, kappa, L234A L235A)
heavy 1: QVQLVQSGAEVKKPGASVKVSCKASGYTFTSHWMHWVRKAPGQGLEWIGEFNPSNGRTNYNEEFKSKATMTVDTSTNTAYMELSSLRSEDTAVYYCASRDYDYDGRYFDYWGQGTLVTVSSASTKGPSVFPLAPSSKSTSGGTAALGCLVADYFPEPVTVSWNSGALTSGVHTFPAVLQSSGLYSLSSVVTVPSSSLGTQTYICNVNHKPSNTKVDEKVEPKSCDKTHTCPPCPAPEAAGGPSVFLFPPKPKDTLMISRTPEVTCVVVDVSHEDPEVKFNWYVDGVEVHNAKTKPREEQYNSTYRVVSVLTVLHQDWLNGKEYKCKVSNKALPAPIEKTISKAKGQPREPQVYTLPPSREEMTDNQVSLTCLVKGFYPSDIAVEWESNGQPENNYKTTPPVLMSDGSFFLASKLTVDKSRWQQGNVFSCSVMHEALHNHYTQKSLSLSPG
light 1: RIQMTQSPSSLSASVGDRVTITCSASSSVTYMYWYQDKPGKAPKLLIYDTSNLASGVPSRFSGSGSGTDYTFTISSLQPEDIATYYCQQWSSHIFTFGQGTKVEIKRTVAAPSVFIFPPSDKQLKSGTARVVCLLNNFYPREAKVQWKVDNALQSGNSQESVTEQDSKDSTYSLSSTLTLSKADYEKHKVYACEVTHQGLSSPVTKSFNRGEC
heavy 2: EVQLVESGGGLVKTGGSLRLSCVASGFSFKKAWMNWVRYAPGKGLEWVGRIKRNTDGGPADYAARVKGRFTLSRDDSKKTLYLQMNSLKTEDTAVYYCTTLDSSSWYVGYYYMDVWGRGTTVTVSSASTKGPSVFPLAPSSKSTSGGTAALGCLVKDYFPEPVTVSWNSGALTSGVHTFPAVLQSSGLYSLSSVVTVPSSSLGTQTYICNVNHKPSNTKVDKKVEPKSCDKTHTCPPCPAPEAAGGPSVFLFPPKPKDTLMISRTPEVTCVVVDVSHEDPEVKFNWYVDGVEVHNAKTKPREEQYNSTYRVVSVLTVLHQDWLNGKEYKCKVSNKALPAPIEKTISKAKGQPRRPRVYTLPPSREEMTKNQVSLVCLVKGFYPSDIAVEWESNGQPENNYKTTPPVLDSDGSFFLYSVLTVDKSRWQQGNVFSCSVMHEALHNHYTQKSLSLSPG
light 2: DIQMTQSPSSVSASVGDRVIITCRASQDINNWLAWYLRRPGDAPKLLIYAASSLQSGVPSRFSGSGSGTDFTLTIGSLQPEDFATYYCQQAHSLPITFGQGTRLEIQRTVAAPSVFIFPPSDEQLKSGTASVVCLLNNFYPREAKVQWKVDNALQSGNSQESVTEQDSKDSTYSLSSTLTLSKADYEKHKVYACEVTHQGLSSPVTKSFNRGEC
  EC50 CHO-K1 EGFR Low (nM); T cell activation bioassay, luciferase: 0.297 nM
  EC50 CHO-K1 EGFR Med (nM); T cell activation bioassay, luciferase: 0.022 nM
